Test results taken from publication PMC6405316 (Nature, 2019).
Blank lines part the entries; values can stand above or below the molecule they belong to.

Legend:
[1] = target: KCTD12 H1 domain (residues 200–325) (human) (UniProt Q96CX2); test: SEC
[2] = target: His6-SMT3-tagged KCTD16 BTB domain (residues 23–124) (human, UniProt Q68DU8 23-124); test: pull-down
[3] = target: KCTD16 BTB domain wild-type (residues 23–124), SMT3 tag cleaved with ULP1 (human, UniProt Q68DU8 23-124); test: pull-down
[4] = target: KCTD16 21–279, His6-GST tag cleaved by 3C protease (human, UniProt Q68DU8 21-279); test: SEC
Chain of KCTD16 21–279, His6-GST tag cleaved by 3C protease (Q68DU8 21-279): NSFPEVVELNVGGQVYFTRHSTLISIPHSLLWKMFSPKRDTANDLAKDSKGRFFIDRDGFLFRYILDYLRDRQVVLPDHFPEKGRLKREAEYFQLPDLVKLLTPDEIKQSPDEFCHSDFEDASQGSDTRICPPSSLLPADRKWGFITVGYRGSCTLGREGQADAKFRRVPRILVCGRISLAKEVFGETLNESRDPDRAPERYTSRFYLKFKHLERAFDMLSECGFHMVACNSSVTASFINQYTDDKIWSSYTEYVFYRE

[5] = target: KCTD12 32–325, His6-GST tag cleaved by 3C protease (human, UniProt Q96CX2 32-325); test: SEC
Chain of KCTD12 32–325, His6-GST tag cleaved by 3C protease (Q96CX2 32-325): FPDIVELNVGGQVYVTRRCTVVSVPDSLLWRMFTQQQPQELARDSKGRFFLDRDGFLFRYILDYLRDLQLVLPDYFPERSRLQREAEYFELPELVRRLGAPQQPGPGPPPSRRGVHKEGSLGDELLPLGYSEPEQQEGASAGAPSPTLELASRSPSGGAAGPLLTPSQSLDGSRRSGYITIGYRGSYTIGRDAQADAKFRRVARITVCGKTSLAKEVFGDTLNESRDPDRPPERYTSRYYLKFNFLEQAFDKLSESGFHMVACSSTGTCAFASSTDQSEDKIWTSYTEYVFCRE

[6] = target: His6-GST-tagged KCTD12 32–325 (human, UniProt Q96CX2 32-325); test: pull-down
Chain of His6-GST-tagged KCTD12 32–325 (Q96CX2 32-325): as above

Chain of KCTD12 H1 domain (residues 200–325) (human) (Q96CX2 200-325): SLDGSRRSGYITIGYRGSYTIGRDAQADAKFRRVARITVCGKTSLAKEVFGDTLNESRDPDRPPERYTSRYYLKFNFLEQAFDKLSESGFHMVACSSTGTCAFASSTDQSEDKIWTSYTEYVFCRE
Chain of His6-SMT3-tagged KCTD16 BTB domain (residues 23–124) (Q68DU8 23-124): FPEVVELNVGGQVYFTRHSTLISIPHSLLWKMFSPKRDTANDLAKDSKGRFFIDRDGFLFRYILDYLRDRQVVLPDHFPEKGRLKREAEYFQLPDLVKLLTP
Chain of KCTD16 BTB domain wild-type (residues 23–124), SMT3 tag cleaved with ULP1 (Q68DU8 23-124): as above

binding result [4]: binds
binding result [5]: binds
Molecule: KDPIEDINSPEHIQRRLSLQLPILHHAYLPSIGGVDAS [GABAB2 876–913, His6-SUMO tag cleaved by 3C protease]

binding result [6]: binds
Molecule: KDPIEDINSPEHIQRRLSLQLPILHHAYLPSIGGVDAS [His6-SUMO-tagged GABAB2 876–913]

Further lines, the molecule ahead of its results:

Molecule: Human Gβ1γ2 heterodimer (His6-Gβ1, Gγ2 C68S) (from UniProt P62873;P59768) (complex)
stoichiometry N (Gβγ per KCTD12H1 chain (5:5)) [1]: 1

Molecule: KDPIEDINSPEHIQRRLSLQLPILHHAYLPSIGGVDAS [His6-GST-tagged GABAB2 C-terminal fragment (residues 876–913)]
binding result [2]: binds
binding result [3]: binds
